# Measured values taken from US12161669.
# Assays:
# [1] = biological target: RhoB GTPase, recombinant (full length RhoB with the C-terminal CKVL motif deleted, six-HIS tag, expressed in E. coli) (UniProt P62745); experiment: BLI (BLItz), RhoB immobilised on Ni-NTA biosensor, B30.2 domain in solution, 1:1 fit, no pAg
# [2] = biological target: RhoB GTPase, recombinant (full length RhoB with the C-terminal CKVL motif deleted, six-HIS tag, expressed in E. coli) (UniProt P62745); experiment: BLI (BLItz), RhoB immobilised on Ni-NTA biosensor, B30.2 domain in solution, 1:1 fit, no pAg; kd(1/Ms) [sic]
# [3] = biological target: RhoB GTPase, recombinant (full length RhoB with the C-terminal CKVL motif deleted, six-HIS tag, expressed in E. coli) (UniProt P62745); experiment: BLI (BLItz), RhoB immobilised on Ni-NTA biosensor, BFI in solution, 1:1 fit, no pAg
# [4] = biological target: RhoB GTPase, recombinant (full length RhoB with the C-terminal CKVL motif deleted, six-HIS tag, expressed in E. coli) (UniProt P62745); experiment: BLI (BLItz), RhoB immobilised on Ni-NTA biosensor, BFI in solution with the phosphoantigen cHDMAPP at 1:1
# [5] = biological target: RhoB GTPase, recombinant (full length RhoB with the C-terminal CKVL motif deleted, six-HIS tag, expressed in E. coli) (UniProt P62745); experiment: BLI (BLItz), RhoB immobilised on Ni-NTA biosensor, BFI in solution, 1:1 fit, no pAg; kd(1/Ms) [sic]
# [6] = biological target: RhoB GTPase, recombinant (full length RhoB with the C-terminal CKVL motif deleted, six-HIS tag, expressed in E. coli) (UniProt P62745); experiment: BLI (BLItz), RhoB immobilised on Ni-NTA biosensor, BFI in solution with the phosphoantigen cHDMAPP at 1:1; kd(1/Ms) [sic]
substance,measurement,setting,value
"BTN3A1 (CD277) B30.2 domain, recombinant (from UniProt O00481 328-513) (receptor)",Kd,[1],102 µM
same,koff,[1],0.206 s⁻¹
same,kon,[2],2020 M⁻¹ s⁻¹
"BTN3A1 (CD277) full-length intracellular domain, recombinant (from UniProt O00481 272-513) (receptor)",Kd,[3],19.7 µM
same,koff,[3],0.0435 s⁻¹
same,Kd,[4],666 µM
same,koff,[4],0.115 s⁻¹
same,kon,[5],2200 M⁻¹ s⁻¹
same,kon,[6],172 M⁻¹ s⁻¹
